# Results as given in paper PMC11746154 (2023).
# B1: Gal4AD-Rec104 [S. cerevisiae] / LexA-Rec102 [S. cerevisiae] (parent complex)
# chain 1: MSIEEEDTNKITCTQDFLHQYFVTERVSIQFGLNNKTVKRINKDEFDKAVNCIMSWTNYPKPGLKRTASTYLLSNSFKKSATVSLPFILGDPVCMPKRVESNNNDTCLLYSDTLYDDPLIQRNDQAGDEIEDEFSFTLLRSEVNEIRPISSSSTAQILQSDYSALMYERQASNGSIFQFSSP
# chain 2: MARDITFLTVFLESCGAVNNDEAGKLLSAWTSTVRIEGPESTDSNSLYIPLLPPGMLKIKLNFKMNDRLVTEEQELFTKLREIVGSSIRFWEEQLFYQVQDVSTIENHVILSLKCTILTDAQISTFISKPRELHTHAKGYPEIYYLSELSTTVNFFSKEGNYVEISQVIPHFNEYFSSLIVSQLEFEYPMVFSMISRLRLKWQQSSLAPISYALTSNSVLLPIMLNMIAQDKSSTTAYQILCRRRGPPIQNFQIFSLPAVTYNK
# Variants of: B1
# Assay: Y2H β-galactosidase assay; parent: 0.97; read off a plot
row,Variant,response [normalized β-gal units]
1,chain 2 S182A,~0.62
2,chain 2 Q183A,~0.01
3,chain 2 L179A,~0.1
4,chain 2 F156A,~1.5
5,chain 2 L8A,~1.4
6,chain 2 V10A,~0.6
7,chain 2 F11A,~0.9

# Variants of: B1
# Assay: as above
# Remark: another data set of the same source
row,Variant,response [normalized β-gal units]
1,chain 1 F31A,~1.6
2,chain 1 I53A,~1.1
3,chain 1 K10A,~0.83
4,chain 1 F17A,~0.8
5,chain 1 L18A,~0.75
6,chain 1 V50A,~1.2
7,chain 1 Y21A,~1.1
8,chain 1 T12A,~0.75
9,chain 1 I11A,~0.93
10,chain 1 L33A,~0.87
